Measured values taken from paper PMC3056158.

Target: SPNct, C-terminal glycohydrolase domain of Streptococcus pyogenes beta-NAD+ glycohydrolase (SPN), residues 191-451 (Streptococcus pyogenes)
Assay: crystal structure

B1: Immunity factor for SPN (IFS), full length, residues 1-161 (natural protein)
chain: MYKVPKGLEHYQKMFQKEVTVNDLKKYLIGSDKEYRITRRDSYMGDISDPEVILEYGVYPAFIKGYTQLKANIEEALLEMSNSGQALDIYQAVQTLNAENMLLNYYESLPFYLNRQSILANITKALKDAHIREAMAHYKLGEFAHYQDTMLDMVERTIETF
modifications: selenomethionine in place of methionine in the derivative used for MAD phasing
  stoichiometry N: 1
